# Measurements published in the supplement of paper PMC9170038.
# Tested on: MS2 coat protein
# Test: apparent KD of MS2 coat protein; designed switch direction (-1 OFF switch, 1 ON switch): -1; higher = weaker reporter binding
# Outline: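 Designed RNA switches with common flanks were made on Illumina chips by stalled E. coli RNA polymerase. Titration with SNAP-549-labelled MS2 coat protein doubled from 0.7 or 1.5 nM up to 3 µM. Apparent KD is each design's median over clusters after curve-fitting normalised fluorescence.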
# [1] = Eterna round: R95, input ligand: microRNA oligo, concentration not stated
# [2] = input ligand: microRNA oligo, concentration not stated
# [3] = Eterna round: R95, input ligand: FMN 200 uM
# [4] = Eterna round: R95, input ligand: none
Sequence,apparent KD of MS2 coat protein (input ligand: FMN 200 uM) [nM],apparent KD of MS2 coat protein (input ligand: none) [nM],apparent KD of MS2 coat protein [2] [nM],further results
AUGAGGUUAGGAUAUACAUGAGGAUCACCCAUGUUGAAGGGUUAGGUAGGCGGAGCUGGUAGAAGGAACGGAGC [JR_Exclu3_Sub057] (puzzle: Exclusion 3),,,,apparent KD of MS2 coat protein [1]: 38.8 nM
"AUGAUACAUGAGGAUCACCCAUGUGAGGAUAUGAAGUUAUAAUACAUACUAUACAUCUUCAGAAGGCAUAUGUG [E1 S1 6/16] (Eterna round: R97, puzzle: Exclusion 1)",229,109,,
"AUGCGUGGCUAGGAUAUUGAGGAAUUUAGUCAGCGAGAAGGAGCCACAUGAGGAUCACCCAUGUGGUGAAGCUC [jl-ex6-4.59 ViennaUCT mod] (Eterna round: R97, puzzle: Exclusion 6)",70.5,19.1,,
"AUGCUCCGUGUAGGAUAUCGCCGUACUACUCGGCGAGAAGGACAUGAGGAUCACCCAUGUAUGUUAUUAUCACGUGUGGCGCGC [Design 49] (Eterna round: R96, puzzle: Exclusion NG 1)",45.7,19.7,14,
AUGGACGCAGGAUAUACAUGAGGAUCACCCAUGUGAGGUUGGUAAGUAGGAAGUGAAGGUAGAAGGGCGAGAGU [JR_Exclu3_Sub098] (puzzle: Exclusion 3),,,,apparent KD of MS2 coat protein [3]: 209 nM; apparent KD of MS2 coat protein [1]: 84.2 nM; apparent KD of MS2 coat protein [4]: 76.8 nM
AUGGACGCAGGAUAUACAUGAGGAUCACCCAUGUUAGGGUUAAGAGAAGGAAGGGAGAGUAGAAGGGCGAGAGU [JR_Exclu3_Sub0100] (puzzle: Exclusion 3),,,,apparent KD of MS2 coat protein [1]: 110 nM
"AUGGCGUUAGGAUAUACUAUGGGCCUGGACAGUGCACCUCCACAUGAGGAUCACCCAUGUAGAAGGAACUCGAG [Eternabot (L2) Solution 99] (Eterna round: R97, puzzle: Exclusion 2)",26.9,20.8,,
"AUGGUUCGAUUAGGAUAUUAUAGAUUGAAUAGUAUGAUUUACAUGAGGAUCACCCAUGUUACAUAUAAGAAGGAAUCGAAUCAU [JR_ExcNG2_Sub087] (Eterna round: R96, puzzle: Exclusion NG 2)",,,11.5,
"AUGUACCGGUGAGGAUAUUUUUAAUAGAGCUUUAUGAUAUACAUGAGGAUCACCCAUGUUACGUUAAAGAAGGCAUCGGAUUAA [Mat - Exclusion NG 2 - Mod of JL - D96] (Eterna round: R96, puzzle: Exclusion NG 2)",,,14,
"AUGUAGGAAGGAUAUGCGUCGGCAUGAAAUCCUUGUUGGCCACAUGAGGAUCACCCAUGUAGAAGGUUCACGUA [Eternabot (L2) Solution 10] (Eterna round: R97, puzzle: Exclusion 2)",48.8,52.7,,
"AUGUUGCGAGGAUAUAUAUGGAGGUUAAAAUUUGAUAUGGAACAUGAGGAUCACCCAUGUAGAAGGUGCAUAAC [JR_Ex2_Sub039] (Eterna round: R97, puzzle: Exclusion 2)",155,57.5,,
AUUAAAAUAUAGGAUAUCGAAUAUAUUAUUUAACGAGAAGGAUGAACAUGAGGAUCACCCAUGUGGUAUCAUGG [Mat - Exclusion 6 - JL Mod - D36] (puzzle: Exclusion 6),,,,apparent KD of MS2 coat protein [3]: 157 nM; apparent KD of MS2 coat protein [1]: 298 nM; apparent KD of MS2 coat protein [4]: 402 nM
"AUUAAUGUCAAAGGAUAUCAGCACGAUUAGUGCUGAGAAGGUUGAACAUGAGGAUCACCCAUGUAGAUCAUUAAUAAUUUAAUU [ENG1/10-B2] (Eterna round: R96, puzzle: Exclusion NG 1)",26.4,16.9,17.9,
AUUAGCUGAGGAUAUGCAGCUUUGUUCGUCGAGUGAAAAGAACAUGAGGAUCACCCAUGUAGAAGGCAGUUGAC [Raargexe] (puzzle: Exclusion 2),,,,apparent KD of MS2 coat protein [1]: 14.8 nM
"AUUAGUAAUAAGGAUAUCACUAGCUGCGGCUAGUGAGAAGGUAUUACAUGAGGAUCACCCAUGUGAUCAAUUAA [E6/3-A3] (Eterna round: R97, puzzle: Exclusion 6)",912,476,,
"AUUAUAUAGACAGGAUAUUGAUUAUUAUUUUAACAUGAGGAUCACCCAUGUAGCCUUAUGUAUAGCAAGAAGGGUCAUUUAUUA [Title] (Eterna round: R96, puzzle: Exclusion NG 2)",,,122,
"AUUAUAUAGUUAGGAUAUUGAUUAUUAUUUUAACAUGAGGAUCACCCAUGUAGCCUUAUGUAUAACAAGAAGGAACAUUUAUUA [Title] (Eterna round: R96, puzzle: Exclusion NG 2)",,,97.9,

Sequence,apparent KD of MS2 coat protein (input ligand: FMN 200 uM) [nM],apparent KD of MS2 coat protein (input ligand: none) [nM],apparent KD of MS2 coat protein [2] [nM],further results
"AUUAUGUGAGGAUAUUAGUAGUAAAUAAAUAAAAUUAUUACUGAGAAGGCACAUGAGGAUCACCCAUGUUCCUU [Salish 062 v6] (Eterna round: R97, puzzle: Exclusion 4)",127,24.1,,
AUUGAUAUUGAGGAUAUGCUUUUAUUUGAACAAGCAGAAGGCGAUACAUGAGGAUCACCCAUGUUUAUGGAAGU [JR_E6_Sub087] (puzzle: Exclusion 6),,,,apparent KD of MS2 coat protein [3]: 51.6 nM; apparent KD of MS2 coat protein [1]: 37.6 nM; apparent KD of MS2 coat protein [4]: 49.4 nM
"AUUGUAUGGGAAGGAUAUAGAAUAUUAUUUUAACAUGAGGAUCACCCAUGUAACCUUAUGUGUAGCUAGAAGGUCCGUUUAUUA [Title] (Eterna round: R96, puzzle: Exclusion NG 2)",,,112,
"AUUGUUUAUGUAGGAUAUGCCUGGCGUGCCUUCGCAGAAGGACAUGAGGAUCACCCAUGUAUUGCGGUCUGCGUUCAGAUCGCA [salish99_ExNG1_r4_024] (Eterna round: R96, puzzle: Exclusion NG 1)",,,45.2,
"AUUGUUUGAUACCUCUAAUACAUGAGGAUCACCCAUGUUAUCGAGGAUAUGCAGAAUAGAUUAGAGCAGAAGGCGAAGUAAUAU [JR_ExcNG3_Sub026] (Eterna round: R96, puzzle: Exclusion NG 3)",31.1,15.6,13.3,
"AUUUAAUUUAAUAAGAUCACAUGAGGAUCACCCAUGUUAUAAUAGGAUAUCAGCUCGAAUAGAGCUGAGAAGGAUUAUAACAUG [ExNG3/9-A4] (Eterna round: R96, puzzle: Exclusion NG 3)",17.2,29,138,
"AUUUAGCAAGCGUGAUCCUACAUGAGGAUCACCCAUGUAGUUCGUCUUAUUUGAAGACAACACAAAAGUGUUGUCUU [Omei Mir OFFv1 B8] (Eterna round: R97, puzzle: Sensor, turn-off variant 1)",355,212,,
AUUUUGUCAGGAUAUGAGUAGUAGGACGAAAGUGUUAUUAUUUAGAAGGGACAUGAGGAUCACCCAUGUUUCUC [Bring Us a Shrubbery-02] (puzzle: Exclusion 4),,,,apparent KD of MS2 coat protein [1]: 12.2 nM
"AUUUUGUCAGGAUAUUGUUAGUUUAGUUGUUUGUAUUAGUUCGAGAAGGGACAUGAGGAUCACCCAUGUGAUUU [Ex4 #74] (Eterna round: R97, puzzle: Exclusion 4)",135,114,,
"AUUUUGUGAGGAUAUGGUAACGUUUACAUGAGGAUCACCCAUGUUUCAUGGGACUAGAGACUAGAAGGCACUAACG [JR_Ex5_Sub028] (Eterna round: R97, puzzle: Exclusion 5)",251,279,,
"AUUUUGUGAGGAUAUUAGAAGUAGAAAGUUGGUAGUAUUGCUGAGAAGGCACAUGAGGAUCACCCAUGUACAAC [JR_Ex4_Sub036] (Eterna round: R97, puzzle: Exclusion 4)",17.6,16.7,,
"AUUUUGUGAGGAUAUUAGUUGUAGAAAAUUAUUAGUUUAGCUGAGAAGGCACAUGAGGAUCACCCAUGUAAAUC [JR_Ex4_Sub043] (Eterna round: R97, puzzle: Exclusion 4)",26.7,18.6,,
"AUUUUGUGAGGAUAUUAGUUGUAGAAAGUUGUUAGUAUUGCUGAGAAGGCACAUGAGGAUCACCCAUGUACAAC [JR_Ex4_Sub038] (Eterna round: R97, puzzle: Exclusion 4)",20.6,19.1,,
CAAAACCUAGGAUAUACAUGAGGAUCACCCAUGUCGGGCCUACGCUAAACGCGCCUCAGUAGAAGGAGGGAAAC [Usasoon] (puzzle: Exclusion 3),,,,apparent KD of MS2 coat protein [3]: 135 nM; apparent KD of MS2 coat protein [1]: 52.6 nM; apparent KD of MS2 coat protein [4]: 63.2 nM
"CAAGCUAUUGUAGCAACUAACAUGAGGAUCACCCAUGUAGGCAUAACUUACCUAGCUCGUUUAUACAAAUCAAUUGU [Eternabot (L2) Solution 11] (Eterna round: R97, puzzle: Sensor, turn-off variant 1)",13.1,17.6,,
"CAAUAGUGAGGAUAUCUGAUCACACCAUGAAGAAGGAGUGUAGAGAAGGCACAUGAGGAUCACCCAUGUCCCGU [Eternabot (L2) Solution 43] (Eterna round: R97, puzzle: Exclusion 4)",37,23.9,,
